Patent US9028810B2, “Composition for inducing migration of neural stem cells containing periostin as effective ingredient” (Ajou University Industry—Academic Cooperations Foundatin, priority 2010, dated 2015)

Assays:
[1] = test system: HB1.F3 human neural stem cell line; experiment: Boyden chamber migration assay, HB1.F3 neural stem cells; format: cell-based; settings: for increase in ability to induce the migration of neural stem cells compared to not treated: Boyden chamber
Method: (§1) In order to examine the effect of periostin on the migration of neural stem cells, a Boyden chamber assay was performed using two human neural stem cell lines (HB1.F3 and HB1.F5), thereby determining whether human neural stem cells migrated in response to periostin in vitro. For controls, VEGF (vascular endothelial growth factor) was used as a positive control, and FBS-DMEM medium was used as a negative control.
(§2) Specifically, cultured neural stem cells were detached with 0.05% trypsin, washed with DMEM medium, and then re-suspended in DMEM medium, after which 5×10^4 cells seeded into an upper chambers (Costar Transwell) in 200 μl of 10% FBS-containing DMEM medium. After one day, a lower chamber was treated with various concentrations of periostin or VEGF. The periostin was used at concentrations of 5, 10 and 20 μg/ml, and the VEGF was used at concentrations of 5, 10 and 20 ng/ml. 10% FBS-DMEM medium was used as a negative control. After 12 hours, in order to determine the number of cells that migrated from the upper chamber through a 8-μm porous polycarbonate membrane to the lower portion of the membrane in response to the stimulation of the lower chamber, the migrated neural stem cells were stained with hematoxylin and then counted.
(§3) After one day, a lower chamber was treated with 10 μg/ml of periostin, and after 4 hours, 8 hours, 12 hours and 24 hours, the migrated cells were stained with H&E (hematoxylin & eosin), counted and photographed (Olympus BX51, Japan).

[2] = test system: DCX and ERK in neural stem cells; experiment: Transwell membrane immunostaining of ERK and DCX in migrated cells; format: cell-based, human; settings: periostin 10 μg/ml, 12 hours; for cell migration: VEGF 10 ng/ml; for location of DCX in migrated cells: with or without inhibitor
Method: To analyze the ERK and DCX affection of migrated cells, transwell membrane immunostaining was performed using ERK and DCX antibodies (Cell signaling tech., Danver, Mass.).
Cultured neural stem cells were detached with 0.05% trypsin, washed with DMEM medium and re-suspended in DMEM medium, after which 5×10^4 neural stem cells were inoculated into an upper chamber (Costar Transwell) in 200 μl of 10% FBS-containing DMEM medium. After one day, a lower chamber was treated with each of VEGF (10 ng/ml), periostin (10 μg/ml) and periostin+inhibitor. After 12 hours, the changes in locations of DCX and ERK in the cells that migrated from the upper chamber through the 8-μm porous polycarbonate membrane to the lower portion of the membrane in response to the stimulation of the lower chamber were examined.
Next, the membrane was washed with PBS, blocked twice with a solution of 5% goat serum and 0.5% triton X-100 in PBS for 30 minutes, and then washed with a solution of 0.5% BSA (bovine serum albumin) in PBS for 15 minutes. After this, the membrane was incubated with a 1:500 dilution of goat polyclonal human DCX antibody and a 1:1000 dilution of rabbit polyclonal human ERK antibody at 4° C. overnight, and then washed twice with PBS for 15 minutes each time. Next, the membrane was incubated with biotin-conjugated anti-rabbit secondary antibody at room temperature for 1 hour and washed trice with PBS, after which […] was detected by staining the membrane using an avidin-biotin kit (Vector, Calif.) and a diaminbenzidin peroxidase (DAB) kit (Vector, Calif.).

[3] = test system: neural stem cells; experiment: In vitro migration assay using ERK pathway and CDK5 pathway inhibitors; format: cell-based, human; settings: 12 hours
From the text: It has been reported that, in the development of the central nervous system, neural stem cells migrate from the subventricular zone to cortex through radial glial cells using the ERK (extracellular signal regulated kinase) and CDK5 signaling pathways, and in the neuronal migration, DCX participated in nucleus translocation, neucleokinesis (Niethammer et al., 2000).
Cultured neural stem cells were detached with 0.05% trypsin, washed with DMEM medium and re-suspended in DMEM medium, after which 5×10^4 cells were inoculated into an upper chamber (Costar Transwell) in 200 μl of 10% FBS-containing DMEM medium.
After 12 hours, in order to determine the number of cells that migrated from the upper chamber through a 8-μm porous polycarbonate membrane to the lower portion of the membrane in response to the stimulation of the lower chamber, the migrated neural stem cells were stained with hematoxylin & eosin and counted.

[4] = test system: PI3K/AKT signaling pathway (PI3K-AKT-mTOR-CDK5-Nudel1, PAK1); experiment: Western blotting of FAK / PI3K-AKT signaling pathway after periostin treatment; format: cell-based, human
Method: The FAK signaling pathway is linked to kinases as its downstream pathways and transduces signals. With respect to cell migration, the PI3K/AKT signaling pathway (PI3K-AKT-mTOR-CDK5-Nudel1, PAK1) is frequently used as the downstream pathway of FAK, and thus the following experiment was performed in order to determine the kinase activation pathway.
First, neural stem cells treated with periostin were washed with PBS and lysed with PMSF and a protease inhibitor in RIPA buffer (0.5% sodiumdeoxycholate, 0.1% sodiumdodecyl sulfate, 1% NP-40, PBS). Protein concentration was determined by a Bio-Rad-DC protein assay (Bio-Rad, Hercules, Calif., US). The samples were adjusted to the same protein concentration, after 30 μg of each protein was separated on SDS-PAGE gel. Then, protein samples were transferred to an immobilon-P membrane (Millipore Corp., MA, US). For protein detection, the membrane was incubated in TBS-T 5% skim milk at room temperature for 30 minutes and washed three times with TBS-T for 15 minutes each time. Then, the membrane was incubated with primary antibodies of FAK, pFAK, PAK and pPAK (1:1000 dilution; Epitomics) in 5% BSA-TBS-T overnight at 4° C. Then, the membrane was washed three times with TBS-T for 15 minutes each time. Then, the membrane was incubated with secondary anti-rabbit antibody (1:2000 dilution; Zymed, Calif., USA) at room temperature for 1 hour. The membrane was washed three times with TBS-T, after which the antibody binding protein was added to an ECL Western blotting detection solution (Amersham Pharmacia Biotechnology, buckinghamahire, UK) for 1 minute and exposed to Kodak X-ray firm for detection. The Western blotting analysis was performed at various time points between 0 and 12 hours after treatment with periostin.

[5] = test system: HB1.F5 human neural stem cell line; experiment: Boyden chamber migration assay, HB1.F5 neural stem cells; format: cell-based
Method: as §1
as §2, with “The periostin was used at concentrations of 5, 10 and 20 μg/ml, and the VEGF was used at concentrations of 5, 10 and 20 ng/ml. 10% FBS-DMEM medium was used as a negative control.” left out
as §3

[6] = neural stem cells, Western blotting 0-12 hours

## vascular endothelial growth factor [VEGF, reference compound]
[1]; HB1.F3 cells, 12 hours
  increase in ability to induce the migration of neural stem cells compared to not treated: 25%
[1]; tested 5, 10 and 20 ng/ml, 12 hours
  concentration at which ability of VEGF to induce migration was the highest: 5 ng/mL
[2]
  cell migration: induced cell migration

## CC[C@H](CO)Nc1nc(NCc2ccccc2)c2ncn(C(C)C)c2n1 [roscovitine, reference compound]
[2]
  location of DCX in migrated cells: the concentration of DCX around the nuclei was inhibited

## COc1cccc(-c2cc(=O)c3ccccc3o2)c1N [PD98059]
[3]; 20 nM inhibitor with periostin in lower chamber
  inhibition of migration of neural stem cells induced by periostin: 40%
[3]; 20 nM inhibitor
  migration of neural stem cells in control group not treated with periostin: inhibited

B1: periostin (protein)
chain: NNHYDKILAHSRIRGRDQGPNVCALQQILGTKKKYFSTCKNWYKKSICGQKTTVLYECCPGYMRMEGMKGCPAVLPIDHVYGTLGIVGATTTQRYSDASKLREEIEGKGSFTYFAPSNEAWDNLDSDIRRGLESNVNVELLNALHSHMINKRMLTKDLKNGMIIPSMYNNLGLFINHYPNGVVTVNCARIIHGNQIATNGVVHVIDRVLTQIGTSIQDFIEAEDDLSSFRAAAITSDILEALGRDGHFTLFAPTNEAFEKLPRGVLERIMGDKVASEALMKYHILNTLQCSESIMGGAVFETLEGNTIEIGCDGDSITVNGIKMVNKKDIVTNNGVIHLIDQVLIPDSAKQVIELAGKQQTTFTDLVAQLGLASALRPDGEYTLLAPVNNAFSDDTLSMDQRLLKLILQNHILKVKVGLNELYNGQILETIGGKQLRVFVYRTAVCIENSCMEKGSKQGRNGAIHIFREIIKPAEKSLHEKLKQDKRFSTFLSLLEAADLKELLTQPGDWTLFVPTNDAFKGMTSEEKEILIRDKNALQNIILYHLTPGVFIGKGFEPGVTNILKTTQGSKIFLKEVNDTLLVNELKSKESDIMTTNGVIHVVDKLLYPADTPVGNDQLLEILNKLIKYIQIKFVRGSTFKEIPVTVYKPIIKKYTKIIDGVPVEITEKETREERIITGPEIKYTRISTGGGETEETLKKLLQEEVTKVTKFIEGGDGHLFEDEEIKRLLQGDTPVRKLQANKKVQGSRRRLREGRSQ
notes: induces migration of neural stem cells
[4]; activated when PAK1 activation decreased
  time for which Nudel1 activation was maintained: 12 h
[4]; [6]
  time after treatment at which AKT and mTOR were activated: 1 h
  time after treatment at which PAK1 started to be activated: 1 h
  time after treatment from which FAK was highly activated: 30 min
  time up to which CDK5 activation was maintained: 12 h
  time up to which PAK1 activation was maintained: 6 h
[5]; HB1.F5, 10 μg/ml periostin, 4, 8, 12 and 24 hours
  migration of neural stem cells over time: increased with time
[5]; HB1.F5 cells, 12 hours
  migration of neural stem cells upon treatment: increased upon treatment with periostin
[1]; HB1.F3, 10 μg/ml periostin, 4, 8, 12 and 24 hours
  migration of neural stem cells over time: increased with time
[1]; HB1.F3 cells
  increase in induction of migration relative to that by VEGF: about 4 times
[1]; HB1.F3 cells, 12 hours
  increase in ability to induce the migration of neural stem cells compared to not treated: about 100%
[1]; tested 5, 10 and 20 μg/ml, 12 hours
  concentration at which ability of periostin to induce migration was the highest: 10 µg/mL
[2]
  cell migration: induced cell migration
  location of DCX in migrated cells: DCX was concentrated around the nuclei
